Coiled-coil units for each protein guest (coiled-coil units per protein), ratio of peptide to protein cargo in the crystals (peptide : protein) and coiled-coils for each protein guest within the hourglass section (coiled-coils per protein) data for one substance are collected here from patent US20240075152A1.

Test [1] concerns the target GCN4-p2L variant (trimeric variant of GCN4 peptide with N-terminal NTA and C-terminal His2), assembled into hexagonal 3D crystals with Zn2+. Briefly: crystals dissolved with EDTA; peptide by UPLC, protein by fluorescence spectroscopy.
The target is the same in test [2]. In words: derived from the EDTA dissolution data and the hourglass volume (about 50%).

Take “Enhanced green fluorescent protein with an N-terminal His6-tag (EGFP)”: in test [1], the coiled-coil units for each protein guest (coiled-coil units per protein) lay within 60 to 70 and the ratio of peptide to protein cargo in the crystals (peptide : protein) turned out to be 200. This substance showed a coiled-coils for each protein guest within the hourglass section (coiled-coils per protein) in test [2] of 30 to 35.
